Reference: US7662384B2, “Use of anti-α5β1 antibodies to inhibit cancer cell proliferation” (Facet Biotech Corporation, priority 2004, dated 2010)

Legend:
NW231 = assay: M200 in vitro cell proliferation assay; type: cell-based, human; details: NW231 (breast)
Experimental: Cancer cell lines were plated at a density of 2500 cells/well in 96-well plates in IMDM with supplements in the presence or absence of 10% FBS. At the time of plating, cells were challenged with various concentrations M200 or a non-function blocking anti-α5 antibody, VC5. […] All growth studies were done at least 3 times in triplicate.

refractory solid tumors = assay: Phase I dose-escalation study: tumor response (RECIST); type: in vivo, human; parameters: key to Response outcome: Complete Response (CR): Disappearance of all target lesions confirmed by repeat imaging 25 to 28 days after CR first documented.; Partial Response (PR): At least a 30% decrease in the sum of LD of target lesions, taking as reference the baseline sum LD; Stable Disease (SD): Neither sufficient shrinkage to qualify for PR nor sufficient increase to qualify for PD, taking as references the smallest sum LD.; Progressive Disease (PD): At least a 20% increase in the sum of LD of target lesions, taking as reference the smallest sum LD recorded since treatment started, or the appearance of one or more new lesions
Experimental: A two-part Phase I open-label study was carried to determine the effects of treatment with up to 6 dose levels, from 0.5 mg/kg to 15.0 mg/kg of M200 (volociximab) in 21 human patients with a variety of refractory solid tumor types. The total duration of treatment for the first part was 6 weeks with physical assessments through 45 days after the last dose.
The dosing levels and schedule used in the study were as follows. M200 was administered to the 21 patients on days 1, 15, 22, 29, and 36. The dosing levels and numbers of patients per level were: 0.5 mg/kg (1 patient), 1.0 mg/kg (2 patient), 2.5 mg/kg (3 patients), 5.0 mg/kg (3 patients), 10.0 mg/kg (6 patients) and 15 mg/kg (6 patients). The dose was administered as an intravenous infusion over 1 hour. The first and second doses were separated by a two week period to allow sampling for single-dose pharmacokinetic data. The real-time PK measurements performed following the first dose were used to predict each patient's peak serum concentration following the fifth dose. If the predicted peak serum concentration following the fifth dose was <750 μg/mL, the patient received all 5 doses of M200. The remaining 3 doses were given weekly and followed by a 45-day evaluation period.
Patient evaluations during the study included the following: • a. Screening (within 14 days of study entry) of: medical history and physical examination, ECOG performance status, routine chemistry panel, complete blood count (CBC) with differential and platelets, sensitive C-reactive protein (CRP), urinalysis with microscopic analysis (UA/micro), electrocardiogram (ECG), chest radiograph (CXR), disease-directed body CT or MRI, urine pregnancy test within 48 hours prior to dosing, and coagulation studies (prothrombin [PT] and partial thromboplastin time [PTT]), anti-M200 antibodies (i.e., to detect cross-reactive HAMA or HACA) for patients who previously received murine or chimeric antibodies, head CT for patients with tumors that commonly metastasize to brain or CNS, and, in some patients, a biopsy to evaluate tumor vessel vascularity. • b. On-study laboratory evaluations: routine chemistry panel, urate, serum amylase, CBC with differential and platelets, UA/micro. • c. Routine disease-directed radiographic imaging (e.g., CT scanning) before and after treatment with M200 was used to evaluate tumor response using uni-dimensional, RECIST criteria. Target lesions were selected on the basis of their size (lesions with the longest diameter (LD)) and their suitability for accurate repetitive measurements (either by imaging techniques or clinically). A sum of the LD for all target lesions was calculated and reported as the baseline sum LD. The baseline sum LD was used as reference by which to characterize the objective tumor response. The following response criteria for the target lesions was used to assess the best overall response. • Complete Response (CR): Disappearance of all target lesions confirmed by repeat imaging 25 to 28 days after CR first documented. • Partial Response (PR): At least a 30% decrease in the sum of LD of target lesions, taking as reference the baseline sum LD, confirmed by repeat imaging 25 to 28 days after PR first documented. • Stable Disease (SD): Neither sufficient shrinkage to qualify for PR nor sufficient increase to qualify for PD, taking as references the smallest sum LD. • Progressive Disease (PD): At least a 20% increase in the sum of LD of target lesions, taking as reference the smallest sum LD recorded since treatment started, or the appearance of one or more new lesions. • d. Blood drawn for serum PK measurements, immunogenicity assays (anti-M200 antibodies), vascular growth factors, and measurement of bound and unbound α5β1 on peripheral blood monocytes. • e. A 3-mm punch biopsy of superficial tumor metastasis was obtained and frozen after the last treatment with M200 from patients who consented (not required for enrollment) to the procedure. […]

[1] = Phase I dose-escalation study: pharmacokinetics (serum ELISA)
Experimental: The serum for measuring M200 concentrations was obtained immediately before and after the first dose, and at 4, 24, 48, and 168 hours after completion of the first dose. Serum samples for measuring M200 concentrations were also taken immediately before, at the end, and 4 hours after the completion of each subsequent infusion. These samples were split and aliquots assayed before the next dose and again at the end of the study: end of 1st dose, 168 hours after 1st dose, immediately pre-dose (trough) and immediately post-dose (peak) for the 2nd, 3rd, 4th and 5th doses. The serum levels of M200 were measured by ELISA.
The plasma concentration-time data of M200 from each patient was subjected to a PK analysis. The following parameters were included in the calculations: peak (Cmax) and trough (Cmin) levels, terminal phase half-life (T1/2 β), area under the plasma-concentration time curve (AUC), elimination clearance (CL), and volume of distribution (V). Summary parameters were computed across patients from each treatment group. Changes in the PK parameters as a function of dose and time were also evaluated.

B1: M200: chimeric IgG4 anti-α5β1 antibody derived from IIA1; generic name volociximab (antibody, V domains shown)
VH: MAVLGLLLCLVTFPSCVLSQVQLKESGPGLVAPSQSLSITCTISGFSLTDYGVHWVRQPPGKGLEWLVVIWSDGSSTYNSALKSRMTIRKDNSKSQVFLIMNSLQTDDSAMYYCARHGTYYGMTTTGDALDYWGQGTSVTVSS
VL: MDFQVQIFSFLLISASVIMSRGQIVLTQSPAIMSASLGERVTMTCTASSSVSSNYLHWYQQKPGSAPNLWIYSTSNLASGVPARFSGSGSGTSYSLTISSMEAEDAATYYCHQYLRSPPTFGGGTKLEIKDMSVDMSV
modifications: chimeric antibody
notes: chimeric IgG4 anti-α5β1 antibody derived from IIA1; generic name volociximab
With B1 the “% Growth Inhibition +Serum” value (NW231; 10% FBS, 4-day assay) was 35%, the “% Growth Inhibition −Serum” value (NW231; absence of serum, 2-day rather than 4-day assay) was 10^2% and the Response outcome (refractory solid tumors; 0.5 mg/kg, CRC patient) was “(PD) (Progressive Disease (PD): At least a 20% increase in the sum of LD of target lesions, taking as reference the smallest sum LD recorded since treatment started, or the appearance of one or more new lesions.)”. The Response outcome (refractory solid tumors; 1.0 mg/kg, HCC patient) was “(SD)”, the Response outcome (refractory solid tumors; 1.0 mg/kg, PC patient) was “(SD)” and the Response outcome (refractory solid tumors; 2.5 mg/kg, CRC patient) was “(PD) (Progressive Disease (PD): At least a 20% increase in the sum of LD of target lesions, taking as reference the smallest sum LD recorded since treatment started, or the appearance of one or more new lesions.)”. The Response outcome (refractory solid tumors; 2.5 mg/kg, MEL Ocular patient) was “(PD) (Progressive Disease (PD): At least a 20% increase in the sum of LD of target lesions, taking as reference the smallest sum LD recorded since treatment started, or the appearance of one or more new lesions.)”, the Response outcome (refractory solid tumors; 2.5 mg/kg, NSCLC patient) was “(SD)” and the Response outcome (refractory solid tumors; 5.0 mg/kg, EC patient) was “(PD) (Progressive Disease (PD): At least a 20% increase in the sum of LD of target lesions, taking as reference the smallest sum LD recorded since treatment started, or the appearance of one or more new lesions.)”. The Response outcome (refractory solid tumors; 5.0 mg/kg, HCC patient) was “(SD)”, the Response outcome (refractory solid tumors; 5.0 mg/kg, THY patient) was “(PD) (Progressive Disease (PD): At least a 20% increase in the sum of LD of target lesions, taking as reference the smallest sum LD recorded since treatment started, or the appearance of one or more new lesions.)” and the Response outcome (refractory solid tumors; 10.0 mg/kg, BC patient) was “(SD)”. The Response outcome (refractory solid tumors; 10.0 mg/kg, CRC patient (two patients)) was “(SD)”, the Response outcome (refractory solid tumors; 10.0 mg/kg, MEL patient) was “(PD) (Progressive Disease (PD): At least a 20% increase in the sum of LD of target lesions, taking as reference the smallest sum LD recorded since treatment started, or the appearance of one or more new lesions.)” and the Response outcome (refractory solid tumors; 10.0 mg/kg, PARO patient) was “(SD)”. The Response outcome (refractory solid tumors; 10.0 mg/kg, RCC patient) was “(SD)”, the Response outcome (refractory solid tumors; 15.0 mg/kg, EC patient) was “(PD) (Progressive Disease (PD): At least a 20% increase in the sum of LD of target lesions, taking as reference the smallest sum LD recorded since treatment started, or the appearance of one or more new lesions.)” and the Response outcome (refractory solid tumors; 15.0 mg/kg, PRO patient) was “(PD) (Progressive Disease (PD): At least a 20% increase in the sum of LD of target lesions, taking as reference the smallest sum LD recorded since treatment started, or the appearance of one or more new lesions.)”. For the same molecule, the “overall response outcome: progressive disease (PD)” value (refractory solid tumors; 21 treated patients, 0.5-15 mg/kg) was 10 patients, the mean trough level ([1]; 10 mg/kg, two weeks after the 1st dose) was 82 µg/mL and the “pharmacokinetics, linearity” value ([1]; slower clearance at the higher concentrations) was “non-linear pharmacokinetics”.
